B1: Pyrobaculum calidifontis crenactin (natural protein, UniProt A3MWN5 1-432, looked up)
chain: MGVISDAYRLKYTFGVDFGTSYVKYGPITLNEPKMVQTRGLFLRDLPESVKMRIPPDVLARGLVVGDEEVRKYLSSVRDVQRNLKYPLKDGVARRDDEEAWRVLKELARYTLAQFPVSDPEFAGWLVAVALSALAPDYMYKAIFDIYDELASEFKIYAVTILPQPLAVAIAENAVNCVIVEGGHGNIQVAPISFALIREGLVALNRGGAEANAITREILKDIGYSDIAREEYAVEVVKRAVGLVPRRLKEAIRAAKSDPDRFVTKVRLSPVVEVEIPREYAWTRFLIGEIVFDPNHEEIKSYIEQSRLRIENAVIGDVTLYGEMDVASAIITSLRNVSVEIQERVASQIILSGGAFSWRVPPGMEDVAADSVTRVKIALEEKSPALASKVEVRLVSEPQYSVWRGAVIYGYALPLSLEWSDTTREGWRFPRR
notes: codon-optimised gene in pOPIN-S; Forms double-stranded helical filaments with ATP and MgCl2; The construct used for co-expression with arcadin-2 is not described; also called PCC; source: E. coli C41(DE3), purified (Ni-NTA, elution by SUMO tag cleavage with SENP1, Sephacryl S300); also co-expressed with arcadin-2 and purified as a complex; not shown: His6, N-terminal, cleaved; SUMO, N-terminal, …
B2: arcadin-2 C-terminal peptide (residues 187-203) (peptide, UniProt A3MWN6 187-203, looked up)
peptide: RGGIGENEWVKILRSKR
notes: arcadin-2, Pyrobaculum calidifontis, NCBI WP_011850311.1, residues R187 to R203 (the last 17 amino acids); also called arcadin-2 peptide; C-peptide; source: synthetic peptide (Generon, U.K)
B3: Pyrobaculum calidifontis arcadin-2 (natural protein, UniProt A3MWN6 1-203, looked up)
chain: MDFPKVLLIRHFTEVLGMKYAGEGGEVLWFEEGLNRVAVGIYFTDLYEEAELYKRVGALMGLGASKVFLAVLPDALAFVDPRYFKANGVGLVVVDPAKGVDGVEVKIFARARPAAVEPLKIDAVKAALHEYLASELKRVEESLFEKVRRYVDQRVEEVKRALQAVEEAKRAAPPVQRAAAESAQEPRGGIGENEWVKILRSKR
notes: arcadin-2, Pyrobaculum calidifontis, NCBI WP_011850311.1; untagged, native protein from pHis17; The construct used for co-expression with crenactin is not described; also called full-length arcadin-2; source: E. coli C41(DE3), purified (heat step 60°C, ammonium sulphate precipitation, Sephacryl S300); also co-expressed with crenactin and purified as a complex

Columns and labels:
[1] = biological target: the molecule itself; test: cryo-EM structure; crenactin 0.5-1 mg/ml in 50 mM NH4HCO3, 20 mM KCl, polymerised with 2 mM ATP and 4 mM MgCl2 for 30 min on ice; helical reconstruction in RELION 2.0
[2] = biological target: B1; test: crystal structure; crenactin at 7 mg/ml mixed with arcadin-2 peptide at molar ratio 1 to 3; 0.31 M sodium acetate, 12.8% PEG 4000, 0.1 M sodium acetate pH 4.5; 1.6 Å; details: both partners purified
[3] = biological target: B1; test: SPR; crenactin immobilised by amide coupling on CM5 chip (~700 RU), Biacore T200, PBS-0.005% Tween 20, 20°C; arcadin-2 or arcadin-2ΔC in 1:2 dilution series from 2 µM; kinetic fits, Kd = koff/kon; details: both partners purified

B1: binds [1].

B2: binds [2].

In the case of B3, the Kd [3] is reported as 31 nM.

From PMC5173319, “Crenactin forms actin-like double helical filaments regulated by arcadin-2” (eLife, 2016)
